The target of data set [1] is T1, endogenous Sav (Salvador), Q9VCR6.
T1 chain: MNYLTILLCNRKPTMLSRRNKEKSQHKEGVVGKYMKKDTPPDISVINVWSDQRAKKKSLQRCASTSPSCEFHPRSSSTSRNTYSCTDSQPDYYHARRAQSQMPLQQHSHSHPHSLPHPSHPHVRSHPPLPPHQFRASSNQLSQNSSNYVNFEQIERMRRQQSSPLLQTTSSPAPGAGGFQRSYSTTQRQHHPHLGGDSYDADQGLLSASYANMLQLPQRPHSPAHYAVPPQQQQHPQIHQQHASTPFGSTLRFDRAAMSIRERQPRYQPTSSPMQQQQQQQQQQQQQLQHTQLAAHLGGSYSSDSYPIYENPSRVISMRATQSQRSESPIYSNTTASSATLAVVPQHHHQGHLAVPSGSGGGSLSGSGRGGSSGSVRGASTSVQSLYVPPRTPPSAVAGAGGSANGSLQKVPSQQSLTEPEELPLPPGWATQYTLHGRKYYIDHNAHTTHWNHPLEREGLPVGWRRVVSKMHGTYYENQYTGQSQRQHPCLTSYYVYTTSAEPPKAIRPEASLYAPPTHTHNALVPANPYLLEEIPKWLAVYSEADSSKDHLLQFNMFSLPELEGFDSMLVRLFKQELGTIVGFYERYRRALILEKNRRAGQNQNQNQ

Data set [2] has as its target GST-Tsc1 (control GST fusion protein).
In the next data set the target is T2, GST-Wts^68-414, Q9VA38.
T2 chain: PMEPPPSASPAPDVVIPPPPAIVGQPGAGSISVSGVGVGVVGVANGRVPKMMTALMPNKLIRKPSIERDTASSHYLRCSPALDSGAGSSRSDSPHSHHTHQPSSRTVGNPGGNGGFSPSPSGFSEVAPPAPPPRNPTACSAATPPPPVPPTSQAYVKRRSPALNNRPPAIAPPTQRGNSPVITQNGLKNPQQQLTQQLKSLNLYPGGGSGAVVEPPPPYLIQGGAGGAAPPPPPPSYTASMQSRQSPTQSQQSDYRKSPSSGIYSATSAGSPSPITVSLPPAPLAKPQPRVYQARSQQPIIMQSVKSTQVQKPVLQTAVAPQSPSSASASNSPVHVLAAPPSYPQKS

Another data set has as its target T3, GST-Sav^362-607, Q9VCR6.
T3 chain: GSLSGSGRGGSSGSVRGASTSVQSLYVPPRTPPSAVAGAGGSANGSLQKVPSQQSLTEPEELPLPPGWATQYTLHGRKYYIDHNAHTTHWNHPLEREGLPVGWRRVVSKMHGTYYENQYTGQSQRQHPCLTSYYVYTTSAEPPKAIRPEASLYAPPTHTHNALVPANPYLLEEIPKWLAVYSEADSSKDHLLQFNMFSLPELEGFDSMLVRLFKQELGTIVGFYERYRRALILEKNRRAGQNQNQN

B1: kinase dead Hpo^K71R mutant (UAS-hpo^K71R) (protein)
chain: MSEPEVTSVVDMKSPNISSSCSFFKLKKLSEESLLQPPEKVFDIMYKLGEGSYGSVYKAVHKESSSIVAIRLVPVESDLHEIIKEISIMQQCDSPYVVRYYGSYFKQYDLWICMEYCGAGSVSDIMRLRKKTLTEDEIATILSDTLQGLVYLHLRRKIHRDIKAANILLNTEGYAKLADFGVAGQLTDTMAKRNTVIGTPFWMAPEVIEEIGYDCVADIWSLGITALEMAEGKPPYGEIHPMRAIFMIPQKPPPSFREPDRWSTEFIDFVSKCLVKEPDDRATATELLEHEFIRNAKHRSILKPMLEETCAIREQQRANRSFGGVLAASQAKSLATQENGMQQHITDNAFMEDPGTLVPEKFGEYQQSSASDATMIAHAEQGVDEGTLGPGGLRNLSKAAAPAAASSAASPLDMPAVDSGTMVELESNLGTMVINSDSDDSTTAKNNDDQKPRNRYRPQFLEHFDRKNAGDGRGDEKPIATEYSPAAAEQQQQQQQQQQQQQQDEQHLASGANDLNNWEHNMEMQFQQISAINQYGLQQHQQQQQVLMAYPLMNEQLIALNNQPNLLLSNAAPMGQQGIPAAAPAQPPPAYQNQHMHTQSHAYVEGEFEFLKFLTFDDLNQRLCNIDHEMELEIEQLNKKYNAKRQPIVDAMNAKRKRQQNINNNLIKI
Regarding B1, in data set [1], the “increase in wing size (MS1096 Gal4 driver)” value is given as “expression of the kinase dead Hpo^K71R mutant results in 35% increase in wing size”.

B2: Myc-tagged Hpo (protein)
chain: MEQKLISEEDLNESEPEVTSVVDMKSPNISSSCSFFKLKKLSEESLLQPPEKVFDIMYKLGEGSYGSVYKAVHKESSSIVAIKLVPVESDLHEIIKEISIMQQCDSPYVVRYYGSYFKQYDLWICMEYCGAGSVSDIMRLRKKTLTEDEIATILSDTLQGLVYLHLRRKIHRDIKAANILLNTEGYAKLADFGVAGQLTDTMAKRNTVIGTPFWMAPEVIEEIGYDCVADIWSLGITALEMAEGKPPYGEIHPMRAIFMIPQKPPPSFREPDRWSTEFIDFVSKCLVKEPDDRATATELLEHEFIRNAKHRSILKPMLEETCAIREQQRANRSFGGVLAASQAKSLATQENGMQQHITDNAFMEDPGTLVPEKFGEYQQSSASDATMIAHAEQGVDEGTLGPGGLRNLSKAAAPAAASSAASPLDMPAVDSGTMVELESNLGTMVINSDSDDSTTAKNNDDQKPRNRYRPQFLEHFDRKNAGDGRGDEKPIATEYSPAAAEQQQQQQQQQQQQQQDEQHLASGANDLNNWEHNMEMQFQQISAINQYGLQQHQQQQQVLMAYPLMNEQLIALNNQPNLLLSNAAPMGQQGIPAAAPAQPPPAYQNQHMHTQSHAYVEGEFEFLKFLTFDDLNQRLCNIDHEMELEIEQLNKKYNAKRQPIVDAMNAKRKRQQNINNNLIKI
B2: the “in vitro kinase assay (32P phosphorylation of the GST substrate)” value is on record as “no signals were detected using a control substrate” in data set [2]; “a GST fusion protein containing this region of Wts was phosphorylated by Hpo” with GST-Wts^68-414, Q9VA38; “myc-tagged Hpo protein specifically phosphorylated a GST fusion protein containing the Hpo-binding region of Sav” with GST-Sav^362-607, Q9VCR6.
